B1: ALD6-1 promoter MXRE2 (dsDNA)
DNA 1: CCGCACCCCCGAATTTTCACAAATTACCCCACACCCTATA
DNA 2: TATAGGGTGTGGGGTAATTTGTGAAAATTCGGGGGTGCGG
B2: MXRE2-M (dsDNA)
DNA 1: CCGCACCCCCGAATTTTCACAAATTACCCAACACCCTATA
DNA 2: TATAGGGTGTTGGGTAATTTGTGAAAATTCGGGGGTGCGG
B3: ALD6-1 promoter MXRE3 (dsDNA)
DNA 1: ACCCTATACTCCACCACTATGAGGGTTATTAGAACTGATC
DNA 2: GATCAGTTCTAATAACCCTCATAGTGGTGGAGTATAGGGT
B4: MXRE3-M (dsDNA)
DNA 1: ACCCTATACTCAACCACTATGAGGGTTATTAGAACTGATC
DNA 2: GATCAGTTCTAATAACCCTCATAGTGGTTGAGTATAGGGT
B5: ALD6-1 promoter MXRE1 (dsDNA)
DNA 1: CCGCTCAACGGTTCTCCTCTACATCGTCCCTCTTTTGGAG
DNA 2: CTCCAAAAGAGGGACGATGTAGAGGAGAACCGTTGAGCGG
B6: MXRE1-M (dsDNA)
DNA 1: CCGCTCAACGGTTCTCATCTACATCGTCCCTCTTTTGGAG
DNA 2: CTCCAAAAGAGGGACGATGTAGATGAGAACCGTTGAGCGG

The series has as its target T1, Mxr1pN150 (Pichia pastoris (Komagataella phaffii), UniProt C4R818 1-150).
T1 sequence: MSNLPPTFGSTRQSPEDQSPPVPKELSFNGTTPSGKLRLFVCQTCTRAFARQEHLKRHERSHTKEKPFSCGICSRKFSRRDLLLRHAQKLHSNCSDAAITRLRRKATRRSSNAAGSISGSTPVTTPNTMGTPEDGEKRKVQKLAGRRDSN
As to the kind of experiment: EMSA; EMSA conditions not given in the material. As to conditions: protein: recombinant; (radiolabeled). A general note: Mobility shift assays separate free from complexed probe on a gel.
B1: the binding result is on record as “binds”. For B2 the value was “no binding”; for B3, “binds”. For B4 the value was “no binding”; for B5, “binds”. For B6 the value was “no binding”.
